Reference: patent US20260234276A1 (DOMAIN THERAPEUTICS, published 2026)
“And” between values parts separate entries of the source, which are not always exact repeats. Equal values may be shown once.

Legend:
pm8 = pm8 (human, sulfated tyrosines at Y15, Y16 and Y17); test: ELISA on coated peptide [cont.]
Procedure: (§1) The specific binding properties of antibodies were evaluated by ELISA with coated CCR8 related peptides (500 ng/mL) in carbonate/bicarbonate buffer. Different peptides were used as described in Table 1 (see Example 1). Each anti-CCR8 mAb was tested at 1 μg/mL then diluted at 1/10. After an incubation at room temperature during 90 min, unbound mAbs were removed by washings. […] After washings, 3,3′,5,5′-tetramethylbenzidine (TMB) (Interchim, Montlugon, France) was added for 15 min. Then the optical density (OD) was determined by using a multiplate reader (Tecan, Lyon, France) and correlated with mAb reactivity on the panel of coated peptides.

pm6 = pm6 (human, sulfated tyrosines at Y16 and Y17); test: ELISA on coated peptide [cont.]
Chain of pm6 (human, sulfated tyrosines at Y16 and Y17) (peptide, as listed by the source): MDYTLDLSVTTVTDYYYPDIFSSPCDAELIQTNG
Procedure: as §1

pm5 = pm5 (human, sulfated tyrosines at Y15 and Y17); test: ELISA on coated peptide [cont.]
Chain of pm5 (human, sulfated tyrosines at Y15 and Y17) (peptide, as listed by the source): as above
Procedure: as §1

pm3 = pm3 (human, sulfated tyrosine at Y17); test: ELISA on coated peptide [cont.]
Chain of pm3 (human, sulfated tyrosine at Y17) (peptide, as listed by the source): as above
Procedure: as §1

human CCR8 [1] = target: T1, human CCR8 (human, UniProt P51685 1-355); test: cell-based or functional assay
human CCR8 [2] = target: T1, human CCR8; test: flow cytometry, hCCR8 transfected CHOK1 cells
Procedure: Briefly, 1·10⁵ cells per well in a 96 well plate were incubated with a dilution of unconjugated anti-CCR8 mAb at 10 μg/mL then diluted at 1/3.33, 4 dilution points (during 30 min at 4° C.). […] To determine EC50 value, 8 concentrations of anti-CCR8 mAb were tested. Unbound antibodies were washed away with PBS (Invitrogen by Thermofisher Scientific, Illkirch-Graffenstaden, France) supplemented by 2% Fetal Bovine Serum (Invitrogen by Thermofisher Scientific, Illkirch-Graffenstaden, France) and 2 mM EDTA (Invitrogen by Thermofisher Scientific, Illkirch-Graffenstaden, France). Subsequently, cells are centrifuged (5 min at 400 g) and bound antibody is detected with F(ab′)₂-Goat anti-Mouse IgG (H+L) Cross-Adsorbed Secondary Antibody, Alexa Fluor 488 (dilution 1/500) (Invitrogen by Thermofisher Scientific, Illkirch-Graffenstaden, France) or with F(ab′)₂-Goat anti-Human IgG Fc Secondary Antibody, PE (Invitrogen by Thermofisher Scientific, Illkirch-Graffenstaden, France) (dilution 1/1000) at 4° C. for 30 min. Detection reagent is washed away and cells are centrifuged (5 min at 400 g) and resuspended in 30 μL PBS. Bound detection antibody is quantified on a MacsQuant16 (Miltenyi, Gladbach, Germany) (B1 or B2 channel, 5000 events per acquisition).

human CCR8 [3] = target: T1, human CCR8; test: cell-based or functional assay; remark: listed apart in the source

Chain of pm8 (human, sulfated tyrosines at Y15, Y16 and Y17) (peptide, as listed by the source): as above

| Binder | binding result (pm8) | binding result (pm6) | binding result (pm5) | binding result (pm3) | IC50 (Gi2 BRET, pH 6.5) (human CCR8 [1]) | IC50 (Gi2 BRET, pH 7.4) (human CCR8 [1]) | % positive cells (human CCR8 [2]) | MFI fold change to isotype ctrl (human CCR8 [2]) | hCCL1 (100 nM) residual response, Protocol #2, mAb 0.08 µg/mL (human CCR8 [3]) | hCCL1 (100 nM) residual response, Protocol #2, mAb 0.4 µg/mL (human CCR8 [3]) | hCCL1 (100 nM) residual response, Protocol #2, mAb 10 µg/mL (human CCR8 [3]) | hCCL1 (100 nM) residual response, Protocol #3, mAb 0.05 µg/mL (human CCR8 [3]) | hCCL1 (100 nM) residual response, Protocol #3, mAb 0.5 µg/mL (human CCR8 [3]) | hCCL1 (100 nM) residual response, Protocol #3, mAb 5 µg/mL (human CCR8 [3]) |
| --- | --- | --- | --- | --- | --- | --- | --- | --- | --- | --- | --- | --- | --- | --- |
| 3-31 (antibody, V domains shown) VH: DVQLQESGPGLVKPSQSLSLTCTVTGYSITSNYAWNWIRQFPGNKLEWMVYITYSGSTRFNPSLKSRISITRDTSKNQFFLQLNSVTTEDTATYYCARGENLFAYWGQGTLVIVSA VL: DVVMTQTPLSLPVSLGDQASISCRSSQSLVHNNGNTYLHWYLQKPGQSPKLLIYKVSNRFSGVPDRFSGSGSGTDFTLKINRLEAEDLGVYFCSQSTYVPLTFGAGTKLELK | binds | binds | binds | binds | 0.163 µg/ml and 1.09 nM | 0.237 µg/ml and 1.58 nM | 65.6% | 5.35 fold |  |  |  |  |  |  |
| 3-11 (antibody, V domains shown) VH: EVQLVESGGGLVQPKGSLKLSCAASGFTFNTYAMNWVRQAPGKGLEWVARIRSKSNNYATYYADSVKDRFTISRDDSQSMLYLQMNNLKTEDTAMYYCVRGREAYYRYDGGYYAMDYWGQGTSVTVSS VL: DIVMTQAAPSVPVTPGESVSISCRSSKSLLHSNGNTYLYWFLQRPGQSPQLLIYRMSNLASGVPDRFSGSGSGTAFTLRISRVEAEDVGVYYCMQHLEYPFTFGSGTKLEIK | binds | binds | binds | binds | 0.03 µg/ml and 0.198 nM | 0.031 µg/ml and 0.21 nM | 90.6% | 22.7 fold | 60% | 36% | 19% | 74% | 68% | 48% |
| 3-34 (antibody, V domains shown) VH: EVQLQQSGPELVKPGASVKISCKTSGYTFTEYTIHWVKQSHGKSLEWVGGINPDNGNTRYDQKFKGKATLTIDKSSSTAYMELRSLTSEDSAVYYCARVARSSGSGPYAMDYWGQGTSVTVSS VL: DVVMTQTPLSLPVSLGDQASISCRCTQSLLHTNGDTYLHWYLQKPGQSPKLLIYKVSNRFSGVPDRFSGSGSGTDFTLKISRVEAEDLGVYFCSQSTHVPYTFGGGTKLEIK | binds | binds | binds | binds | 0.207 µg/ml and 1.38 nM | 0.281 µg/ml and 1.88 nM | 73.7% | 10.3 fold |  |  |  |  |  |  |
| 3-44 (antibody, V domains shown) VH: QVQLKESGPGLVAPSQSLSITCTVSGFSLTDYGVSWIRQPPGKGPEWLGVIWGGGNTYYNSVLKSRLSISNDNSKSQVFLRMNSLQTADTAIYYCARPRRDYYALDYWGQGTSVTVAS VL: DVVMTQTPLSLPVSLGDQASISCRSSQSLVYTNGNTFLHWYLQKPGQSPKLLIYKVSNRFSGVPDRFSGSGSGTDFTLKISRVEAEDLGVYFCSQSTHVPPTFGGGTKLEIK | binds | binds | binds | binds | 0.578 µg/ml and 3.85 nM | 0.812 µg/ml and 5.41 nM | 78.9% | 6.36 fold |  |  |  |  |  |  |
| 3-42 (antibody, V domains shown) VH: QVQLKESGPGLVAPSQSLSITCTVSGFSLTDYRVSWIRQPPGKGLEWLGVIWGGRSTYYNSALKSRLSISKDNSKSQVFLKMNSLQTDDTAMYYCAKQGDGYYALDYWGQGTSVTVSS VL: DVVMTQTPLSLPVSLGDQASISCRSSQSLVHSYGNTYLHWYLQKPGQSPKLLIYKVSNRFSGVPDRFHGSGSGTDFTLKISRVEAEDLGVYFCSQSTHVPPTFGGGTKLEIK | binds | binds | binds | binds | 0.516 µg/ml and 3.44 nM | 0.82 µg/ml and 5.47 nM | 57.7% | 3.84 fold |  |  |  |  |  |  |
| 3-52 (antibody, V domains shown) VH: QVQLQQPGSELVRPGASVKLSCKASGYTFTSYWMHWVKQRPGQGLEWIGNIWPGSASTNYDEKFKNKATLTVDTSSSTAYMQLSSLTSEDSAVYYCIRGGKGAMDYWSQGTSVTVSS VL: DVVMTQIPLSLPVSLGDQASISCRSSQSLENSYGNTYLNWYLQKPGQSPQLLIYRVSNRFSGVLDRFSGSGSGTDFTLKISRVEAEDLGVYFCLQVTHVPPTFGAGTKLELK |  |  |  |  | 0.078 µg/ml and 0.523 nM | 0.087 µg/ml and 0.579 nM | 81.6% | 9.92 fold | 99% | 83% | 56% | 116% | 90% | 45% |
| 3-51 (antibody, V domains shown) VH: QVQLQQSGAELVRPGVSVKISCKGSGYTFTDYAIHWVKQRHAKSLEWIGVISTYYGDTRYNQKFKGKATMTVDKSSNTAYMELARLTSEDSAIYYCARGGLRQDYAMNYWGQGTSVTVSS VL: not shown | binds |  | binds |  | > 67 nM and > 10 µg/ml | > 10 µg/ml and > 67 nM | 73.2% | 6.91 fold |  |  |  |  |  |  |
| 3-40 (antibody, V domains shown) VH: QVQLKESGPGLVAPSQSLSITCTVSGLSMNDYVVTWIRQPPGKGLEWLGVIWGGGNTYYNSDLKSRLSITKDNSKSQVFFKMSSLQTDDTAVYYCARRHRDYALDYWGQGISVTVSS VL: ENVLTQSPAIMSASPGEKVTMTCRASSSVSSSYLHWYQQKSGASPKLWIYSTSNLASGVPARFSGSGSGTSYSLTISSVEAEDAATYYCQQYSGYPYTFGGGTKLEIK | binds | binds | binds | binds |  |  | 69.9% | 5.81 fold |  |  |  |  |  |  |
| 3-12 (antibody, V domains shown) VH: QVQLQQPGAVLVKPGASVKMSCKASGYTFTSYNMHWLKQTPGQGLEWIGAIAPGKGDTSHNQKFKGKATLTADKSSSTAYMQLSSLTSEDSAVYYCARRNNYEPFVYWGQGTLVTVSA VL: DIVFTQSPASLAVSLGQRATISCRASESVEYYGTSLMQWYQQKPGQPPKLLIYAASNVESGVPARFSGSGSGTDFSLNIHPVEADDIAMYFCQQSRKVPFTFGSGTKLEIK | binds | binds | binds |  | 0.037 µg/ml and 0.248 nM | 0.088 µg/ml and 0.587 nM | 87.8% | 14.9 fold |  |  |  |  |  |  |
| 3-47 (antibody, V domains shown) VH: QVQLQQPGAELVKPGASVKMSCKASGYTFTSYNMHWVKQTPGQGLEWIGAISPGNGDTSYNQKFKGKATLTADKSSSTAYMQLSSLTSEDSAVYYCARGKNGNVPMDYWGQGTSVTVSS VL: DIVLTQSPASLAVSLGQRATISCRASESVEYYGTSLMKWYQQKPGQPPKLLIYAASIVESGVPARFSGSGSGTDFSLNIHPVEEDDIAMYFCQQSRKVPWTFGGGTKLEIK | binds | binds | binds | binds | 0.175 µg/ml and 1.16 nM | 0.483 µg/ml and 3.22 nM | 75.8% | 6.81 fold |  |  |  |  |  |  |
| 3-23 (antibody, V domains shown) VH: QVQLVETGGGLVRPGNSLKLSCVISGFTFSNYRIHWLRQPPGKRLEWIAVITVKSDNYEANYAESVKGRFTISRDDSKSSVYLQMNRLREEDTATYYCSRPDGFSPFVYWGQGTLVTVSA VL: DIKMTQSPSSMYASLGERVTITCKASQDINNYLSWFQQKPGKSPKTLIYRADRLVDGVPSRFSGSGSGQDYSLTISSLDYEDMGIYYCLQYAEFPPTFGAGTKLELK | binds | binds | binds | binds | > 4.5 µg/ml and > 30 nM | > 4.5 µg/ml and > 30 nM | 80% | 12.7 fold |  |  |  |  |  |  |
